Experimental data from patent publication US20220193237A1 (Bristol-Myers Squibb, published 2022).

T1: monomeric human CTLA-4 (human, UniProt P16410 36-161, limits assumed)
T1 construct: Soluble monomeric analyte in SPR; also called huCTLA-4
T1 sequence: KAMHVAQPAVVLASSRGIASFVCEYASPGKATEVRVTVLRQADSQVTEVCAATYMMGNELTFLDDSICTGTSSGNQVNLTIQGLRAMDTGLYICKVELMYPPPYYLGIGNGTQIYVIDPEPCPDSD


Tests used:
[1] = target: T2, human CTLA-4 on 58 α-β-CTLA-4/CD3 ζ cells (human; mouse (mCD3ζ)); assay: cell-based or functional assay
[2] = target: T2, human CTLA-4 on 58 α-β-CTLA-4/CD3 ζ …; assay: flow cytometry, non-fucosylated IgG1 on 58αβ-CTLA4/mCD3ζ cells, pH 7.2
Procedure: (§1) Antibodies were titrated from 100 μg/mL at a 1:4 dilution across 12 points in pH-specific buffers and incubated for 30-60 minutes. Buffers contained HBSS, 2% FBS^HI, 0.02% sodium azide, 2 mM EDTA, and sodium phosphate buffer (pH 5.4). Sodium phosphate buffer was added until desired pH was reached (7.2, 6.7, 6.2). Approximately 3e5 cells/well were tested for each cell line. […] Detection was done with a monovalent anti-hKappa secondary nanobody conjugated to Alexa647 and used at a dilution of 1:2000. Cells were fixed with BD Fix Solution I for 30 minutes prior to resuspension in pH-specific buffers and reading on the cytometer (BD Fortessa).

[3] = target: T2, human CTLA-4 on 58 α-β-CTLA-4/CD3 ζ …; assay: flow cytometry, non-fucosylated IgG1 on 58αβ-CTLA4/mCD3ζ cells, pH 6.2
Procedure: as §1

[4] = target: T2, human CTLA-4 on 58 α-β-CTLA-4/CD3 ζ …; assay: flow cytometry, non-fucosylated IgG1 on 58αβ-CTLA4/mCD3ζ cells, pH 6.7
Procedure: as §1

[5] = target: T2, human CTLA-4 on 58 α-β-CTLA-4/CD3 ζ …; assay: cell-based or functional assay; remark: listed apart in the source
[6] = target: T1, monomeric human CTLA-4; assay: SPR, captured Fab, pH 6.0 vs 7.4, second experiment
Procedure: (§2) See Example 3. Antibodies were tested as monovalent Fab fragments to simplify analysis.
(§3) Monomeric human CTLA-4 was flowed as analyte with up to 2 μM top concentration. Between cycles, the capture surface was regenerated with 75 mM phosphoric acid. Experiments were run on a BIACORE® T200 instrument at 37° C. Running buffers were HEPES buffered saline for pH 7.4 experiments and Bis-Tris buffered saline for lower pH experiments. […] Double referenced sensorgrams were fitted to a 1:1 Langmuir binding model with mass transport to determine equilibrium dissociation constants (KD), as well as association (kₐ) and dissociation (kd) rate constants where appropriate.

[7] = target: T1, monomeric human CTLA-4; assay: SPR, captured Fab, pH 7.4, second experiment
Procedure: as §2, §3

[8] = target: T1, monomeric human CTLA-4; assay: SPR, captured Fab, second experiment of Table 3
Procedure: as §2, §3

[9] = target: T1, monomeric human CTLA-4; assay: SPR, captured Fab, pH 6.0, second experiment
Procedure: as §2, §3

Row | Binder | IC50 (read off the curve), mIL-2 secretion, 58αβ-hCTLA/mCD3ζ:rhB7-1 blocking assay, 18 h, pH 7.0 [1] | Cmax (MFI) [2] | EC50 [2] | Cmax (MFI) [3] | EC50 [3] | Cmax (MFI) [4] | EC50 [4] | IC50 (read off the curve), mIL-2 secretion, 58αβ-hCTLA/mCD3ζ:rhB7-1 blocking assay, 18 h, pH 6.8 [5] | KD 7.4/6 (APBP) [6] | ka 6/7.4 [6] | kd 7.4/6 [6] | Kd [7] | koff [7] | kon [7] | ratio of KD (7.4/6.0) normalized to the ratio of ipilimumab [8] | Kd [9] | koff [9] | kon [9]
1 | ipi.105, non-fucosylated IgG1 (antibody, V domains shown, non-fucosylated N-linked glycan, Non-fucosylated full-length human IgG1; also called Ipi.105 IgG1-NF) VH: QVQLVESGGGVVQPGRSLRLSCAASGFTFSHYTMHWVRQAPGKGLEWVTFISYDGHNKYYADSVKGRFTISRDNSKNTLYLQMNSLRAEDTAIYYCARTGWLGPFDYWGQGTLVTVSS VL: EIVLTQSPGTLSLSPGERATLSCRASQEVGESELAWYQQKPGQAPRLLIYGAFSRATGIPDRFSGSGSGTDFTLTISRLEPEDFAVYYCQQYGSSPWTFGQGTKVEIKR | ~4 nM | 107000 MFI | 3.94 nM | 107000 MFI | 2.6 nM | 110000 MFI | 3.45 nM | ~2 nM | – | – | – | – | – | – | – | – | – | –
2 | ipi.106, non-fucosylated IgG1 (antibody, V domains shown, non-fucosylated N-linked glycan, Non-fucosylated full-length human IgG1; also called Ipi.106 IgG1-NF) VH: QVQLVESGGGVVQPGRSLRLSCAASGFTFSHYTMHWVRQAPGKGLEWVTFISYDGHNKYYADSVKGRFTISRDNSKNTLYLQMNSLRAEDTAIYYCARHGWLGPFDYWGQGTLVTVSS VL: EIVLTQSPGTLSLSPGERATLSCRASQEVGESELAWYQQKPGQAPRLLIYGAFSRATGIPDRFSGSGSGTDFTLTISRLEPEDFAVYYCQQYGSSPWTFGQGTKVEIKR | – | 62000 MFI | 11.5 nM | 88000 MFI | 3.15 nM | 80200 MFI | 4.37 nM | – | – | – | – | – | – | – | – | – | – | –
3 | ipi.23 Fab (Fab, V domains shown, Tested as monovalent Fab) VH: QVQLVESGGGVVQPGRSLRLSCAASGFTFSSYTMHWVRQAPGKGLEWVTFISYDGNNKYYADSVKGRFTISRDNSKNTLYLQMNSLRAEDTAIYYCARTGWLGPFDYWGQGTLVTVSS VL: not shown | – | – | – | – | – | – | – | – | 4.1 | 2 | 2.1 | 27 nM | 0.013 s⁻¹ | 490000 M⁻¹ s⁻¹ | 5.1 | 6.5 nM | 0.0062 s⁻¹ | 960000 M⁻¹ s⁻¹
4 | ipi.24 Fab (Fab, V domains shown, Tested as monovalent Fab) VH: QVQLVESGGGVVQPGRSLRLSCAASGFTFSSYTMHWVRQAPGKGLEWVTFISYDGNNKYYADSVKGRFTISRDNSKNTLYLQMNSLRAEDTAIYYCARTGWLGPFDYWGQGTLVTVSS VL: not shown | – | – | – | – | – | – | – | – | 3.3 | 2 | 1.7 | 24 nM | 0.0099 s⁻¹ | 420000 M⁻¹ s⁻¹ | 4.1 | 7.2 nM | 0.006 s⁻¹ | 830000 M⁻¹ s⁻¹
5 | ipi.26 Fab (Fab, V domains shown, Tested as monovalent Fab) VH: QVQLVESGGGVVQPGRSLRLSCAASGFTFSSYTMHWVRQAPGKGLEWVTFISYDGNNKYYADSVKGRFTISRDNSKNTLYLQMNSLRAEDTAIYYCARTGWLGPFDYWGQGTLVTVSS VL: not shown | – | – | – | – | – | – | – | – | 3.4 | 2 | 1.7 | 30 nM | 0.012 s⁻¹ | 410000 M⁻¹ s⁻¹ | 4.3 | 8.9 nM | 0.007 s⁻¹ | 790000 M⁻¹ s⁻¹
